Measured values: paper PMC3025574 (Nucleic Acids Research, 2010)

Molecular target: Escherichia coli DNA gyrase B subunit (GyrB) (Escherichia coli, UniProt P0AES6 1-804)
Experiment: SAXS

B1: GyrA-ΔCTD (mutant GyrA subunit lacking the CTDs, residues 1–523) (domain or fragment)
chain: MSDLAREITPVNIEEELKSSYLDYAMSVIVGRALPDVRDGLKPVHRRVLYAMNVLGNDWNKAYKKSARVVGDVIGKYHPHGDSAVYDTIVRMAQPFSLRYMLVDGQGNFGSIDGDSAAAMRYTEIRLAKIAHELMADLEKETVDFVDNYDGTEKIPDVMPTKIPNLLVNGSSGIAVGMATNIPPHNLTEVINGCLAYIDDEDISIEGLMEHIPGPDFPTAAIINGRRGIEEAYRTGRGKVYIRARAEVEVDAKTGRETIIVHEIPYQVNKARLIEKIAELVKEKRVEGISALRDESDKDGMRIVIEVKRDAVGEVVLNNLYSQTQLQVSFGINMVALHHGQPKIMNLKDIIAAFVRHRREVVTRRTIFELRKARDRAHILEALAVALANIDPIIELIRHAPTPAEAKTALVANPWQLGNVAAMLERAGDDAARPEWLEPEFGVRDGLYYLTEQQAQAILDLRLQKLTGLEHEKLLDEYKELLDQIAELLRILGSADRLMEVIREELELVREQFGDKRRTEITA
binding result: binds
